# Experimental data from patent publication US20240279318A1 (NANJING LEGEND BIOTECH, published 2024).
# Substitutions are numbered along the chain they refer to.
# B1: AS170036 VL1VH1 HD102M (scFv)
# scFv: QSALTQPRSVSGSPGQSVTISCAGTSSDVGSENYVSWYQQHPGKAPKLMIYQVNKRASGVPDRFSGSKSGNTASLTISGLQAEDEADYYCASYRSSDHNIVFGGGTKLTVLGGGGSGGGGSGGGGSEVQLVESGGGLVQPGGSLRLSCAASGFTFSSYAMSWVRQAPGKGLEWVSTINSGTGSPYYADSVKGRFTISRDNSKNTLYLQMNSLRAEDTAVYYCAKNFFMGSWFLGPPAMDYWGQGTLVTVSSHHHHHH
# B2: AS170036 VL1VH1 HF106W (scFv)
# scFv: B1 scFv with M228D, F232W
# B3: AS170036 VL1VH1 HG108H (scFv)
# scFv: B1 scFv with M228D, G234H
# B4: AS170036 VL1VH1 HG56W (scFv)
# scFv: B1 scFv with G182W, M228D
# B5: AS170036 VL1VH1 HF101N (scFv)
# scFv: B1 scFv with F227N, M228D
# B6: AS170036 VL1VH1 HG56D (scFv)
# scFv: B1 scFv with G182D, M228D
# B7: AS170036 VL1VH1 HF101Y (scFv)
# scFv: B1 scFv with F227Y, M228D
# B8: AS170036 VL1VH1 HG56S (scFv)
# scFv: B1 scFv with G182S, M228D
# B9: AS170036 VL1VH1 HF101D (scFv)
# scFv: B1 scFv with F227D, M228D
# B10: AS170036 VL1VH1 HG56P (scFv)
# scFv: B1 scFv with G182P, M228D
# B11: AS170036 VL1VH1 HD102W (scFv)
# scFv: B1 scFv with M228W
# B12: AS170036 VL1VH1 HG56V (scFv)
# scFv: B1 scFv with G182V, M228D
# B13: AS170036 VL1VH1 HG108L (scFv)
# scFv: B1 scFv with M228D, G234L
# B14: AS170036 VL1VH1 HG56E (scFv)
# scFv: B1 scFv with G182E, M228D
# B15: AS170036 VL1VH1 HG56I (scFv)
# scFv: B1 scFv with G182I, M228D
# B16: AS170036 VL1VH1 HG56K (scFv)
# scFv: B1 scFv with G182K, M228D
# B17: AS170036 VL1VH1 HG108V (scFv)
# scFv: B1 scFv with M228D, G234V
# B18: AS170036 VL1VH1 HD102V (scFv)
# scFv: B1 scFv with M228V
# B19: AS170036 VL1VH1 HG56Q (scFv)
# scFv: B1 scFv with G182Q, M228D
# B20: AS170036 VL1VH1 HF101H (scFv)
# scFv: B1 scFv with F227H, M228D
# B21: AS170036 VL1VH1 HG56H (scFv)
# scFv: B1 scFv with G182H, M228D
# B22: AS170036 VL1VH1 HD102T (scFv)
# scFv: B1 scFv with M228T
# B23: AS170036 VL1VH1 HD102S (scFv)
# scFv: B1 scFv with M228S
# B24: AS170036 VL1VH1 HG56M (scFv)
# scFv: B1 scFv with G182M, M228D
# B25: AS170036 VL1VH1 HG56R (scFv)
# scFv: B1 scFv with G182R, M228D
# B26: AS170036 VL1VH1 HD102P (scFv)
# scFv: B1 scFv with M228P
# B27: AS170036 VL1VH1 HG108Q (scFv)
# scFv: B1 scFv with M228D, G234Q
# B28: AS170036 VL1VH1 HG108T (scFv)
# scFv: B1 scFv with M228D, G234T
# B29: AS170036 VL1VH1 HG108R (scFv)
# scFv: B1 scFv with M228D, G234R
# B30: AS170036 VL1VH1 HG108I (scFv)
# scFv: B1 scFv with M228D, G234I
# B31: AS170036 VL1VH1 HF101W (scFv)
# scFv: B1 scFv with F227W, M228D
# B32: AS170036 VL1VH1 HG108W (scFv)
# scFv: B1 scFv with M228D, G234W
# B33: AS170036 VL1VH1 HG56L (scFv)
# scFv: B1 scFv with G182L, M228D
# B34: AS170036 VL1VH1 HD102Q (scFv)
# scFv: B1 scFv with M228Q
# B35: AS170036 VL1VH1 HD102N (scFv)
# scFv: B1 scFv with M228N
# B36: AS170036 VL1VH1 HG56T (scFv)
# scFv: B1 scFv with G182T, M228D
# B37: AS170036 VL1VH1 HG108F (scFv)
# scFv: B1 scFv with M228D, G234F
# Target: T1, AFP158/HLA-A*02:01 complex (human)
# T1 construct: biotinylated on the BSP by BirA for ELISA and panning; also called biotinylated AFP158/HLA-A*02:01 complex; Bio-AFP158
# Experiment: SPR; vs AS170036 VL1VH1;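 further: crude scFv captured on sensor chip, peptide–HLA complex flowed over at several concentrations, KD estimated from association and dissociation kinetic rates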
# Experimental: The experiment was carried out as follows. The crude scFv protein were captured onto the sensorchip. Different concentrations (320, 160, 40 nM) of AFP158/HLA-A*02:01 complex flowed over the sensorchip surface, and were allowed to bind the antibody fragment for 100 s followed by injection of the running buffer to allow dissociation of the complex. On-rate (kd) and off-rate (kd) were calculated based on association and dissociation curve, and were used to estimate the equilibrium dissociation constant (KD).
row,Affinity increase,Binder
1,0.3 fold,B1
2,0.4 fold,B2
3,0.4 fold,B3
4,1.7 fold,B4
5,0.1 fold,B5
6,1 fold,B6
7,1.1 fold,B7
8,1.5 fold,B8
9,0.2 fold,B9
10,0.1 fold,B10
11,0.1 fold,B11
12,0.4 fold,B12
13,1.4 fold,B13
14,1 fold,B14
15,0.2 fold,B15
16,0.7 fold,B16
17,0.7 fold,B17
18,0.1 fold,B18
19,1 fold,B19

row,Affinity increase,Binder
1,0.3 fold,B20
2,1.5 fold,B21
3,0.1 fold,B22
4,0.4 fold,B23
5,1.7 fold,B24
6,0.8 fold,B25
7,0.3 fold,B26
8,1.4 fold,B27
9,0.5 fold,B28
10,0.2 fold,B29
11,0.2 fold,B30
12,0.8 fold,B31
13,0.1 fold,B32
14,0.8 fold,B33
15,0.2 fold,B34
16,0.1 fold,B35
17,0.7 fold,B36
18,0.3 fold,B37

# Target: T1, AFP158/HLA-A*02:01 complex
# Experiment: SPR, crude scFv captured;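 further: Peptide–MHC complex flowed at several concentrations over sensorchip-captured scFv, Kd derived from on- and off-rates obtained from the association and dissociation curves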
row,Kd,Binder
1,840 nM,B1
2,630 nM,B2
3,660 nM,B3
4,130 nM,B4
5,3700 nM,B5
6,230 nM,B6
7,210 nM,B7
8,160 nM,B8
9,1400 nM,B9
10,1600 nM,B10
11,2200 nM,B11
12,630 nM,B12
13,200 nM,B13
14,240 nM,B14
15,1100 nM,B15
16,350 nM,B16
17,370 nM,B17
18,1800 nM,B18
19,240 nM,B19

row,Kd,Binder
1,830 nM,B20
2,150 nM,B21
3,1800 nM,B22
4,520 nM,B23
5,130 nM,B24
6,300 nM,B25
7,880 nM,B26
8,200 nM,B27
9,530 nM,B28
10,1500 nM,B29
11,1000 nM,B30
12,300 nM,B31
13,2300 nM,B32
14,290 nM,B33
15,950 nM,B34
16,2500 nM,B35
17,340 nM,B36
18,810 nM,B37
